Results taken from paper doi:10.1101/2024.11.01.621267 (bioRxiv, 2024).

B1: HsLARP4 peptide 615–625 (peptide)
peptide: RKLSYAEVCQK
notes: La-related protein 4 (LARP4), human, residues 615-625 (within CR2); source: synthetic peptide (GenScript)
B2: HsLARP4 peptide 575–625 (peptide)
peptide: LNQTTIPVSPPSTTKPSRASTASPCNNNINAATAVALQEPRKLSYAEVCQK
notes: La-related protein 4 (LARP4), human, residues 575-625; source: synthetic peptide (GenScript)
B3: HsLARP4 peptide 587–637 (peptide)
peptide: TTKPSRASTASPCNNNINAATAVALQEPRKLSYAEVCQKPPKEPSSVLVQP
notes: La-related protein 4 (LARP4), human, residues 587-637; source: synthetic peptide (GenScript)
B4: HsLARP4 peptide 612–625 (peptide)
peptide: QEPRKLSYAEVCQK
notes: La-related protein 4 (LARP4), human, residues 612-625; source: synthetic peptide (GenScript)

Each binder was assayed against recombinant full-length RACK1 protein (ITC) (human, UniProt P63244 1-317) (assay: ITC; LARP4 peptide (400 μM; 300 μM for 600–625) injected into RACK1 (40 μM; 30 μM) in the cell; iTC200; 298K; 20 mM HEPES, 300 mM NaCl, 10% glycerol, 1 mM DTT pH 7.5; triplicate). Details: both partners purified.

B1 and B2 are within 1.5-fold of each other in Kd: 3000 nM for the first, 2700 nM for the second.

B3 and B4 are within 1.5-fold of each other in Kd: 2300 nM for the first, 2000 nM for the second.

First: B1
Second: B2
The dH of the first is lower: -8.1 kcal/mol for the first, -5.7 kcal/mol for the second.

Going from B3 to B4, the dH falls from -7.8 kcal/mol to -8.3 kcal/mol.

Going from B1 to B2, the “stoichiometry N” value rises from 0.9 to 1.

Compared with B3, B4 is lower in “stoichiometry N” value: 1 for the first, 0.8 for the second.

B2 and B3 are within 1.5-fold of each other in Ka: 370000 M⁻¹ for the first, 440000 M⁻¹ for the second.
